Source: a protein production outcome set (Wang et al. 2014)

Assay: label from the status in PepcDB records
For “MLAIRRGASMPPLNRSDDLMPGIDEIPERRDEVSLGDLLLEVLRFYQQFGRLLIPLAVLCGVLAGVVVATRPLYAVTALLETPQMSLEQWRKLQPMLADRQLVAASLASMTELPPEQRERLQRAFVLKKYWDTRVTYRSAVERDDIRQQVNIDAKSVGALGLEVSLYARDDAAANQQLDAIAQHVRQVVLWGGLRDYLDSLRQQTLEQRPQLQIDQIQQRYAIEQNERQAADMQQLLERYPELRRNEVNTVVSVGDGGGRYLSPLAQIVALQSTIAGTRTTLRQVERELEQLDGKQRFLARVDQRAPGLHLGRALADWVQSCRRAVFGSGTPSGSALSQVASEIDLALSQQRWRAQLVRYRAIPALSPAPVPSRRPALVALAVFLGVLLVASLGLAMYVIARRNGDRHASWSAHADPLFAWLPQRMRGLLLGPTDARPLGSG”, the protein production was “failed”.
For “MLAKVLKKRGAVLRGDFVLSSGRRSSVYIDMRRLLGDESSYSVALDLLLEVGGQDLARSSAVIGVATGGLPWAAMLALRLSKPLGYVRPERKGHGTLSQVEGDPPKGRVVVVDDVATTGTSIAKSIEVLRSNGYTVGTALVLVDRGEGAGELLARMGVRLVSVATLKTILEKLGWGGE”, the protein production was “not failed”.
For “MLAPERIHPALWRATQLAHGPTRKLPTGYADLSAQLPGGGWPLGALVELLLPQPGSGEIRLLRPALAQLEARRAIALVQPPHAPHIASWASWRLDPRQLLWVAPERPADALWAAEQILKAGSCAALLCWLPQVRPESLRRLHLAAQGGDALFVALRPAAAEQHASPAVLRLALAPAPGGLSIRIVKRRGPACEHPVHVGLEAGAGLSVFPAPHAPLDRRLPAQPVAGRRTPALVSLEHHHHHH”, the protein production was “not failed”.
For “MLARALFFVVLSTATFLFLWQFPSTGAQSIPHLDKLVHFGIFFVLALTFHRAFALSAKLSLLILVCYGFLIEIAQSYAPGRSADVYDWLADASGVVAYFILHHLLSKKSR”, the protein production was “failed”.
With “MLASLEARYPGLAFAWPRPGVLEITFRGEKLXAMPPALHRGLARVWRDLEAVEGVRAVLLRGEGGVFSAGGSFGLIEEMRASHEALLRVFWEARDLVLGPLXFPRPVVAAVEKVAVGAGLALALAADIAVVGKGTRLLDGHLRLGVAAGDHAVLLWPLLVGMAKAKYHLLLXEPLTGEEAERLGLVALAVEDEKVYEKALEVAERLAQGPKEALHHTKHALXHWYRSFLPHFELSLALEFLGFSGKELEEGLKALKEKRPPEFP” the protein production was “not failed”.
With “MLAVFTKSVAGVKLFGMMYPVLERSENLPTDDSIDAIKEIAKALQSVLFKLHINGYSSLLHPLGVNNVDFILKFYVVKDGENDSLRVINVYHKLCGEAEDSWLEIVNNFRGEFSFISMMQRIEASLLLINAVKCYVVSDTLGNLFFRNDYNFGTGGSVCYVHIFGGHYLASGKGLRKLQLPLMETKMEPLIPDDIV” the protein production was “failed”.
For “MLAVIEKQGNEYVVQFERYFSYSIEEVWSVLTENSKLKKWMSNLQIESLKTGGIIKFDMMDGSFINIDILECQVNAVLEFTWDKDCVRFEIHKEENDTLLLLKEYIHELTDHTPKDIAGWHICLDLFSSVLEGKEKEFSKDEWKQWFEIYKDKVLELRA”, the protein production was “failed”.
For “MLAVKIFDRLPLALVITNASHSVLYANDAFKLMVCLQPDDILAFNPEQFFSPSEPHEIASLFNHLSEGKMWQGELVGLRNNGETFYLDLTVTVFRESHSADLGFAWLFSDVSERKKAAQLEHHHHHH”, the protein production was “not failed”.
In the case of “MLCCLRIENFALIDHLELDLQAGLMVLTGETGAGKSIILDALDLALGGKATARLIRAKNDQGDATGERAFIEATFSLTPSIKQWLQSQDIDLLEDETVICSRELSLTRTGLRSRSRVNGIILNQGLMAELRAQLLEITAQGQTVELLIPERQRILLDSYGGSQVQQQRQLVNLAYQTYLKAKQLLESRRTSEQERLQRLDLLQYQLQELRDAHLEDSEELETLQQEGDRLSHVVELQQLSYQAHQILYQNDDPETPAVADLLGEAENLLKEMVDYDTQLNGILD”, the protein production is reported as “failed”.
For “MLCLHTSVHCYENPSVIFSLIYIIICKYMYYNILSATTIFILYSQIVGQNGDDIIKYYHSFLNYVIIFYMSRH”, the protein production was “failed”.
In the case of “MLDDLDLFVAIVDAGSLSAAAKRMAMPAATLTRRLQALEAELGCKLLNRSARRLVPTNEGWQYYEQCKPLLAALRQAADSLDATLNRVEGVVRAMAPVSMANSLLLPVWQRLLQRHPAVRLELVLSNGTEDVWAMGGDLAIRVGPQPDSQLNQRKLGQVSAVLAAAPSYLEARGRPQAFEQLAGHDLLLTTPLQNWKLHRVDGDEERSLPDGARLLVNDMLLGVRMAEAGCGVVLCPLSQCHRELADGRLERILQDWWIPPRPVYAVWPQRRAMPARVRALLDILLEFAAEEPLLRS”, the protein production is reported as “failed”.
In the case of “MLDLNEFLTRKMKIDVLLKEHGWDVGDRSKVVLEVDTIQSDIKKQDYRQVNETRRNDAESKYADYLLLDSTGKPLAIIEAKRTTKDPILGQKQAEEYADDIKTQTGEEVFIFLSNGYQIWLWDRERYGPRQIKGFYSPEDLERLLYQRKYSERETEIDIDGNIVDRAKSVEVATRVVEHIHKGHRKALIVMATGTGKTRVAMAIIDQLMRESRVQRVLFLTDRKALRKQAYEKGYLRYFPEETKEIIHSGNYNSNCRLYVSTIQTFQEIYNQKDRNGKYRISPGAFDLIFSDEAHRSIYSKWKGIFTYLDAIQIGLTATPADMVDRDTFRFFECHDDIPTALYSYEDAVRDGVLCDFRKNISGARTYFQIEGLKPENLTEGEREELIKKGIDPDDINFEGTELEKKVAVKGTSEAIVREFMENCLTDQAGTLPAKTIFFAISKLHAKRLWEAFEKLYPEHKGKLARIIVSEDSRAQQLIKDFEEKPFPRIAISVDMMDTGIDVPEVCNLVFAKPVFSKIKFWQMLGRGTRADGACEHREWLPDGKKEYFKVFDFWNNFEYWNMNPEGAKNESAEAITNRIFLTRLKQLGELMQRRDPASEKAAEKVKAKIISDIESLPRDSVNVREHLQDMEKALSPKLWDNIAIDPVEFLQKKIMPLMKFKPDVNLKEATFTLRCEKLAYALLENDKAEIDRLKTSIAEMVDRLPRTLDSVRAREALMDNVLSRSFWETVSFEDVQLLLSDLAPLMPYMAKEPRETIVIDMSDIIAERKKWEISDGNDPSYVEAYRREVEARIKALAETHPAVRKIKNNEPLTDYDLEQLEETLLNADLTPDNPKLSSHASLSDLYPSRQASLVDFIRQVLGLYSSPSPDALIKDAFQTYIIGNNKHYSSDQLNFILTLQTVFLKKKHIEYSTLWLPPFTNFGTTAPFPMFTQEELNSFIDICKGVEKDIFM”, the protein production is reported as “not failed”.
For “MLDLVNQLELDSQMKQFKLVSQMTRQDVIILDEPGYLPFSQKRGALLFHLMSQLHENTSVIITTNLEFSEWGTLFTEAKMTNALLDRLIHHCHMLETGNESYRFKHRNLEHHHHHH”, the protein production was “failed”.
For “MLDNRPIGVFDSGIGGLTIVKNLMSILPNEDIIYFGDIARIPYGTKSRATIQKFAAQTAKFLIDQEVKAIIIACNTISAIAKDIVQEIAKAIPVIDVITAGVSLVDNLNTVGVIATPATINSNAYALQIHKKNPNIEVYSNPCGLFVSMIEEGFVSGHIVELVAKEYLSYFHDKNIQALILGCTHYPIIKESIAKILDVKLIDPSLQASKMLYSLLFENKLLNTTKSNPEYRFYVTDIPLKFRSVGEMFLQTEMQHLEIVSLDSY”, the protein production was “not failed”.
With “MLDPATRTPPSLPDFIIGGAMKSATSSLHHLLSNHEQVYLPDGETHFFCMDDPVQHSGFFFPARAPSQRAPDYDRHGETNLDWYRQLFEPAHPDQCVGDYSSTYLPAPDAPLRIKRLLPDVKLLFMLRNPVDRTYSHYWHRVKTGRAVHGFEYELQHGPSTLLLRSFYKPQLERYFDFFPEDQVKVILFERFVDHTQAVVDEVCSFLGLETAVDVAGVDAHQNRSPVPRWPGLQLLLNYCTTGIETRSEGQLPYPAQPQSSYALQGLVHHLRQLNLTPRRPPPMNDSVRACLEQIFARKNQDLGTLLGVDLTSYWPFLRKQHDEPAETAA” the protein production was “failed”.
In the case of “MLDQKPKVSVIIPTYNRAHLIPRAIKSVLNQTYLDIEIIIVDDSSTDNTEEIVKDFKDRRLKYIRHNINKGASAARNTGIRESRGKYIAFQDSDDEWFSNKLEKQIEAFADAPPEVGIVYSGFYRIEANRKLYLPSDQLSLKEGNIHNELLKGNFVGTPTVLMKKECFRNQRYFNESLPALEDWELWIELSKYYTFRYIKKPLLCSYSTPNSINLNENNMLKAHEIILLTHLDDFSKNKKNLSEHYYDIGTGLCSIGNFNNGKNYLIKSLKAYCLNFKTISVLFILLFGHNIYYKFRDLHRKIGHRT”, the protein production is reported as “failed”.
In the case of “MLDRVIYSLIQTENKSVVNELFFRIAEGEDSFAELARKYSQGAEADRGGIIGPVELGSITPNFAQLLYTSQVGVVQPPVAFGNTWVIVRVEKLIPAQLEHHHHHH”, the protein production is reported as “failed”.
With “MLEAEVVALKDLIEVAGAVVSTLDLDTVLRHILTSAMRFAETPAGSIALYDGYRNDLTLHAHEGLTPEFVKTERWSVQPGGLTEQVLTRGEILFVNDTADTSFFHNPTALNEGIRSLICVPLMMQNRIVGILYLDDFVPRDFDKERMKLLSVLASFAAMAIDNAQLHARTRLMAITDSLTGLYNHRYFQQIFSRELNRAKRYEKPLAIIMLDVDDFKRFNDTYGHPHGDKVLAAMGDFLGEALRSSDFAFRYGGEEFIVLLPETEFDSALQVAERLRELVERRSLDVLKGLAPQGVTVSVGVASFPRDGESRGDMLKRVDDLLYRAKEFGKNRVYSRREDEP” the protein production was “failed”.
For “MLEDHHLYKAAIEHSPIGIGLCAPKGRFLDVNRALCALTGHEAQALRARDLFDLCHPDYAARTRERVEALLAGEQDALSLETRFVRPDGSTVWVQADLALARAEAGDGQDGHLIVQVQDVTARRLALESLQASEQRLAYVLDGAGLGTFDWSMRVRHVSFNRRTAEMLGYAHDELSTDPQDWFAMVHPQDAVLSVRRIYRHLRGDADSFEVEQRLRNQEGQWVWMSARGRVTQRDALGIAVRVSGTLQDVTRRRAMLDQAHHLALHDPLTDLPNARLLRDRLFVAIQAARRAGSLVAVVFVDLDRFKPVNDEYGHGVGDLVLKATAMRLRSGLRASDTVARLGGDEFVAVLTHCQTRDDVEQTVERLIEQLQAPFRVEGHVLSMGVSAGVALYPSDGRDAQTLIRCADAAMYEVKRAGGNDFGFHASLNYERLMSMRQRGPDPDGGADGR”, the protein production was “failed”.
For “MLEGAKFNVLAVGNHHNNDNNYYAFTQEFYQKLNEGSNMSMESMQTSNAGGSVSMSVDNSSVGSSDALIGHPGLKPVRHYSLSVGQSVFRPGRVTHALNDDALAQALMDTRYPTEGLTNYDEWTIDLRKLNMGPAFAQGAFGKLYKGTYNGEDVAIKILERPENSPEKAQFMEQQFQQEVSMLANLKHPNIVRFIGACRKPMVWCIVTEYAKGGSVRQFLTRRQNRAVPLKLAVKQALDVARGMAYVHGRNFIHRDLKSDNLLISADKSIKIADFGVARIEVQTEGMTPETGTYRWMAPEMIQHRAYNQKVDVYSFGIVLWELITGLLPFQNMTAVQAAFAVVNRGVRPTVPNDCLPVLSDIMTRCWDANPEVRPCFVEVVKLLEAAETEIMTTARKARFRCCLSQPMTID”, the protein production was “failed”.
With “MLEHAAGQPWIYPVLLVFFFIDGFATILPSETAIVGLSALSLHSGEPNLWILGGTALVGAMAGDNMAYMLGRKIGLTRWKWMRRPKVQKMFAWAQYELDKRGAVLIFTARYIPWGRVAVNYVAGQTGFRHRTFFWLDAFACITWVGYSIGIGLLAGQWVHHNPLLGVGIAVAFAVVLGIVVDHALRWWHKYLEKKDVAREAAASSEVKVAEPADLSQKAVAGADLSKPAG” the protein production was “failed”.
For “MLEILMSLTAAICWAFNGIAYRKGVKDVSAFTANFHRTLFATVYFLPLALRDFPGVVIDLQTALVLVISAMLSFYIGDLSYFASLKRSPVSIALPASSTYPVYVVLLSTVIYGAELSLNALISAILVFVAVYIIYGSGEKGETSGLFYALLAAFSWALAILTLDFLTDRLPVSIVAFVRLLLCLILLSFTAKKDELSTEIRLFFRSVRGIFLLLGIMLFITAIKVSSSWNVVQPSSTSPVFAAIFGAIFLKERISFRLVAGIFVIILAILLLLLPPLQ”, the protein production was “failed”.
